Source: patent US20230025129A1 (KYMAB, published 2023)

T1: rat matriptase-2 ECD protein his tag (rat, UniProt Q9DBI0 80-811 (mouse entry))
T1 construct: aa 80-811 of NCBI XP_006242057.1 with C-terminal linker and His tag; also called rat MTP-2 ECD
T1 chain: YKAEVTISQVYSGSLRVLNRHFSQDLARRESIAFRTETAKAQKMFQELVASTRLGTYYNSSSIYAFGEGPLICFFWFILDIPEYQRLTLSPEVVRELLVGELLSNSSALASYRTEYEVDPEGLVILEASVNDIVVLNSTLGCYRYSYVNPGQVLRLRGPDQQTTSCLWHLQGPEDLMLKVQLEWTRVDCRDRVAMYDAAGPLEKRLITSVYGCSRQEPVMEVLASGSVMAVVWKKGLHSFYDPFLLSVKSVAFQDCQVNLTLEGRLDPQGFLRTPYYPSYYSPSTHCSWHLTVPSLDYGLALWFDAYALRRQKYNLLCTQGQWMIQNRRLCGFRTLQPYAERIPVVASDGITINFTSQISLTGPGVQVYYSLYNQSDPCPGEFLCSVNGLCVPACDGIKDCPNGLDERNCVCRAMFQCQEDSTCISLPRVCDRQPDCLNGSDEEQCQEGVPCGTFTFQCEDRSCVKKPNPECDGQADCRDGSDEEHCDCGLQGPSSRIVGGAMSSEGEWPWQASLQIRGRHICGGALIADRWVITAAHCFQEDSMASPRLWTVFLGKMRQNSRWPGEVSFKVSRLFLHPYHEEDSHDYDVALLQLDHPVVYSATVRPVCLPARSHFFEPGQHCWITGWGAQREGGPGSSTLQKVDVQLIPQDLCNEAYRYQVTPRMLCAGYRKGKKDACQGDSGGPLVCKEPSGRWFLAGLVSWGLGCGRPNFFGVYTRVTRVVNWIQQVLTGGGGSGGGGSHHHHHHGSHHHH

T2: mouse matriptase-2 ECD protein his tag (mouse, UniProt Q9DBI0 80-811)
T2 sequence: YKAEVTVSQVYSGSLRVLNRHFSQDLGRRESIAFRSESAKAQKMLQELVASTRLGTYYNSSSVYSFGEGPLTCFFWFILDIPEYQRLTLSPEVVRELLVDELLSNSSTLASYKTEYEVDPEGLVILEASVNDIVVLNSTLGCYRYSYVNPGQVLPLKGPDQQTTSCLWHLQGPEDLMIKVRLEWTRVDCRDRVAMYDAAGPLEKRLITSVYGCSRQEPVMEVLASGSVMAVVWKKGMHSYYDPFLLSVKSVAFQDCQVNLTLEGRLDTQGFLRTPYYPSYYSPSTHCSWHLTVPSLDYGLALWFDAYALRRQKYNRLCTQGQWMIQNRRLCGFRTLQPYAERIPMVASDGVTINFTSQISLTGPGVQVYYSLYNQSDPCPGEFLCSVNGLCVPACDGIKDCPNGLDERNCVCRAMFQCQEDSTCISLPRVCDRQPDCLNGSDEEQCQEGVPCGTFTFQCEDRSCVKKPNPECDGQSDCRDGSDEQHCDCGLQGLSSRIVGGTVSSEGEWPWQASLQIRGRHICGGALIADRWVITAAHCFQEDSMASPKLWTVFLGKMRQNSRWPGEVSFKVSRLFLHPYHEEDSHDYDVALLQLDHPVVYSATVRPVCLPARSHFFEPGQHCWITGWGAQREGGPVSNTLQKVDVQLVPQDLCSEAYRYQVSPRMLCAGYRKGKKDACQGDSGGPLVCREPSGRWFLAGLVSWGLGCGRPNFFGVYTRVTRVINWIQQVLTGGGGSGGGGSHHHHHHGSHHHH

T3: human MTP-2 expressed on HEK293 cells (human, UniProt Q8IU80 1-811)
T3 sequence: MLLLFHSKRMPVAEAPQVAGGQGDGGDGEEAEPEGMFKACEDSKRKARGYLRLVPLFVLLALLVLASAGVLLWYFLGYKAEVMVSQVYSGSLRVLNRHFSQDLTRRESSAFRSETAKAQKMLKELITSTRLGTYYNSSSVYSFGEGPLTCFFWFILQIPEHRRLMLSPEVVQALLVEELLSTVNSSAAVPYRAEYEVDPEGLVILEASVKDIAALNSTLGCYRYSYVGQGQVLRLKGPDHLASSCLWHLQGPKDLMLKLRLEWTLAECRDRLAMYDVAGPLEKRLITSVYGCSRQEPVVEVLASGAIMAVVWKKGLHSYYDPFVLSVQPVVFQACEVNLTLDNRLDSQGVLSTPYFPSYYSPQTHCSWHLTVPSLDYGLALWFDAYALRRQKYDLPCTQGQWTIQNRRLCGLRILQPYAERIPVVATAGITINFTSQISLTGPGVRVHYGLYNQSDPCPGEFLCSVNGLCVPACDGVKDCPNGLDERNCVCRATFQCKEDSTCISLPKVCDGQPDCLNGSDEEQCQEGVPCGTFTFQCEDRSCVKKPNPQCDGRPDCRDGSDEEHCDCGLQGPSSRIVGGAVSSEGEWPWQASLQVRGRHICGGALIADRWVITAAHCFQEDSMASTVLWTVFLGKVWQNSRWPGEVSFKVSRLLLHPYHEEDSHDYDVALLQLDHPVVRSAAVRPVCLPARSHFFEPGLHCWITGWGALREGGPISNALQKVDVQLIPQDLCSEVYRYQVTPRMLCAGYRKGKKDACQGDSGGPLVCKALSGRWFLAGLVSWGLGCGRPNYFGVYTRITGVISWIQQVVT


Experiments:
[1] = target: T1, rat matriptase-2 ECD protein his tag; assay: SPR, his-tagged MTP-2 ECD protein (Table W)
Procedure: Off-rate screening was performed by surface plasmon resonance (SPR), using a Biacore 8K system (GE Healthcare). Anti-human Fc mix (˜1000 RU) were immobilised in both active and reference channels in HBS-P+ buffer (GE BR100671) pH 7.4. Anti-MTP-2 hulgG4PE antibodies were then captured for 60 sec at 10 μl/min at 1 μg/ml concentration (approximatively 35 and 50 RU were captured) only on the active channel. MTP-2 ECD protein analytes were then injected (at 100, 25, 6.25, 1.56 and 0 nM concentrations) for 120 sec (association time) at 30 μl/min and dissociation monitored for 600 sec. Multiple cycle kinetics mode was used with all 8 channels being used. Reference and background were subtracted from the sensorgrams for each antibody and data was fitted using a 1:1 interaction model in the Biacore evaluation software. Rmax, ka, kd globally fitted, RI=0.
NORI-011, NORI-008, NORI-003 and NORI-006 were all found to have cross-reactive binding to human, mouse, cyno and rat MTP-2 ECD proteins. […] The true KD value for NORI-008 could not be measured accurately for human or mouse MTP-2 due to a very slow off-rate.

[2] = target: T2, mouse matriptase-2 ECD protein his tag; assay: cell-based or functional assay
[3] = target: T3, human MTP-2 expressed on HEK293 cells; assay: cell-based or functional assay

Binder	Kd [1]	Inhibition enzymatic activity mouse MTP2 protein (IC50) [2]	Inhibition enzymatic activity human MTP2 on cells (IC50) [3]
NORI-008 (antibody, human IgG4 S228P, kappa, V domains shown, human IgG4PE, kappa, in the in vitro assays; a mouse IgG1 format was used in one in vivo study only; also called NORI-008 hulgG4PE; NORI-008 IgG) VH: QVQLQESGPGLVKPSETLSLTCSVSGGSVSSGRYYWTWIRQPPGKGLEWIGYISNSGNTNYNPSLKSRVTISLDTSKKQFSLSLSAVTAADTAVYYCARGFIYDYWFDPWGQGSLVTVSS VL: DSQMTQSPSSLSASVGDRVTITCQASQDIDNYLNWYQQRPGKAPKLLIYDASKLETGVPSRFSGSGSGTDFTFTISSLQPEDFATYYCQQYGNLPITFGQGTRLDIKR	7.64 nM	1.5 nM	0.0839 nM
NORI-013 (antibody, human IgG4 S228P, lambda, V domains shown, human IgG4PE, lambda) VH: EVQLVESGGGLIQAGRSLRLSCAASGFTFDEHVIYWVRQIPGKGLEWISSISWKSDIIAYADSVKGRFTISRDNAKNALYLQMNSLRAEDTALYYCAREKDGDFYYYYFAMDVWGQGTTVTVSS VL: QSALTQPPSASGSPGQSVTLSCTGTSSDVGYYNYVSWYLQHPGKAPKLMIYEVSKRPSGVPDRFSGSKSANTASLTVSGLQAEDEADYYCSSYAGSNKVVFGGGTKVTVLG		3.59 nM	0.619 nM
NORI-006 (antibody, human IgG4 S228P, kappa, V domains shown, human IgG4PE, kappa) VH: EVQLVESGGGLIKPGRSLRLSCTGSGFTFGDFGLSWFRQAPGKGLEWISFIRSKPYGGTTDYAASVKGRFTISRDDSKNVAYLQMNSLKTEDTAVYYCARNEILTGYYIFDYWGQGTLVTVSS VL: DIQMTQSPSSLSASLGDRVTITCQASQDINNYLNWYQVQPGKAPKLLIFDASILETGVPSRFSGSGSGTDFSFTISSLQPEDIATYYCQQYDNLPLTFGGGTKVDFKR	15.2 nM	22.9 nM	
NORI-003 (antibody, human IgG4 S228P, kappa, V domains shown, human IgG4PE, kappa; NORI-002 with the free cysteine of the VH domain mutated (printed as 'C49C')) VH: EVQLVESGGGLVKPGRSLRLSCTGSGFTFGDFGMSWFRQAPGKGLEWVGFIRSKPYGGTTDYAPSVRGRFSISRDDSKGIVYLQMNSLRTEDTAVYYCSRNEILTGYYIFDYWGQGTLVTVSS VL: DIQMTQSPSSLSASLGDRVTITCQASHDITNYLIWYQQKPGKAPRLLIFDASILETGVPSRFSGSGSGTDFTFTISSLQPEDFATYYCQQYYNLPLTFGGGTKVDIKR	19.2 nM		

Second part, the binder after the results:

Kd [1]	Inhibition enzymatic activity mouse MTP2 protein (IC50) [2]	Inhibition enzymatic activity human MTP2 on cells (IC50) [3]	Binder
3.01 nM			NORI-011 (antibody, human IgG4 S228P, lambda, human IgG4PE, lambda; NORI-010 with a P124S mutation in the VH domain) heavy: not shown light: QSALTQPPSASGSPGQSVTISCTGTSSDVGFYNFVSWYQQHPDKAPKVMIYEVSKRPSGVPDRFSGSKSGNTASLTVSGLQAEDEADYYCSSYAGSNKVVFGGGTKLTVLGQPKAAPSVTLFPPSSEELQANKATLVCLISDFYPGAVTVAWKADSSPVKAGVETTTPSKQSNNKYAASSYLSLTPEQWKSHRSYSCQVTHEGSTVEKTVAPTECS
	8.5 nM	0.532 nM	NORI-014 (antibody, human IgG4 S228P, lambda, V domains shown, human IgG4PE, lambda) VH: EVQLVESGGGLIQAGRSLRLSCAASGFTFDEHVMYWVRQIPGKGLEWISSITWKSDIIAYADSVKGRFTISRDNAKNALYLQMNSLRAEDTALYYCAREKDGDFYYYYFAMDVWGQGTTVTVSS VL: QSALTQPPSASGSPGQSVTLSCTGTSSDVGYYNYVSWYLQHPGKAPKLMIYEVSKRPSGVPDRFSGSKSANTASLTVSGLQAEDEADYYCSSYAGSNKVVFGGGTKVTVLG
